Target: HAdV-52 short fiber knob (human adenovirus type 52 (HAdV-52))
Assay: SPR; 52SFK captured by its His-tag on a Ni-NTA chip (700 RU); fetuin or asialofetuin type II as analytes, two-fold series 125 to 1 μM; 25°C; HBS-EP+; Biacore T100

B1: sialylated fetuin glycoprotein (natural protein)
chain: IPLDPVAGYKEPACDDPDTEQAALAAVDYINKHLPRGYKHTLNQIDSVKVWPRRPTGEVYDIEIDTLETTCHVLDPTPLANCSVRQQTQHAVEGDCDIHVLKQDGQFSVLFTKCDSSPDSAEDVRKLCPDCPLLAPLNDSRVVHAVEVALATFNAESNGSYLQLVEISRAQFVPLPVSVSVEFAVAATDCIAKEVVDPTKCNLLAEKQYGFCKGSVIQKALGGEDVRVTCTLFQTQPVIPQPQPDGAEAEAPSAVPDAAGPTPSAAGPPVASVVVGPSVVAVPLPLHRAHYDLRHTFSGVASVESSSGEAFHVGKTPIVGQPSIPGGPVRLCPGRIRYFKI
modifications: sialylated glycans
B1 was tested, and the Kd was 37 µM.
